These results are taken from patent publication US20240228562A1 (Pieris, published 2024).

What all share (test): SPR (Biacore)
The target in assay [1] is T1, recombinant human CTGF-Fc protein (Creative Biomart) (human).
T1 construct: Bought; also called human CTGF with a human IgG1 Fc Tag
How it is done: (§1) The binding of exemplary lipocalin muteins to human (Creative Biomart), cynomolgus, rat (R&D Systems) and mouse CTGF (Abbexa) was determined by SPR using a Biacore instrument (Cytiva, formerly GE Healthcare). Some targets were fused to a human IgG1 Fc tag, and captured via the anti-human IgG antibody kit, others were directly immobilized.
(§2) For some measurements, human CTGF with a human IgG1 Fc Tag or rat or murine CTGF without a tag were directly immobilized to a CM5 Chip. The carboxyl groups on the chip were activated using 1-ethyl-3-(3-dimethylaminopropyl)-carbodiimide (EDC) and N-hydroxysuccinimide (NHS). […] Residual non-reacted NHS-esters were blocked by passing a solution of 1 M ethanolamine across the surface. The reference channel was activated/deactivated. For the capture setting, targets with an IgG Fc Tag at 0.25-2.5 μg/mL in HBS-EP+ buffer were captured by the anti-human IgG-Fc antibody at the chip surface for 180 s at a flow rate of 10 μL/min.
(§3) The binding assay was carried out with a contact time of 180 s, a dissociation time of 900-3600 s and a flow rate of 30 μL/min. All measurements were performed at 25° C. […] For the directly immobilized targets, the same regeneration conditions were used. Prior to the protein measurements, three startup cycles were performed for conditioning purposes.

The target of the next assay is T2, cynomolgus CTGF (cynomolgus, UniProt I7G525 27-349).
T2 construct: also called cyCTGF
T2 sequence: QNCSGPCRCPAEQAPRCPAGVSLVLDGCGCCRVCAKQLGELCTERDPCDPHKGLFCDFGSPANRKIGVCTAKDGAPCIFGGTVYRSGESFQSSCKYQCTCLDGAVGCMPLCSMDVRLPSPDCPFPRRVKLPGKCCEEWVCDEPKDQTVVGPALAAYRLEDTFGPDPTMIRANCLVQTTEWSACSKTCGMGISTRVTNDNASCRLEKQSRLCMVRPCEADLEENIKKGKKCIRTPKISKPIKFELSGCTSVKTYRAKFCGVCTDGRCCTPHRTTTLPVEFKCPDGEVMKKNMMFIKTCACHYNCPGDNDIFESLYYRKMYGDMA
The procedure: as §1, §2, §3

In another assay the target is T3, mouse CTGF (Abbexa) (mouse, UniProt P29268 26-348, limits assumed).
T3 construct: also called Murine CTGF; mCTGF
T3 sequence (looked up): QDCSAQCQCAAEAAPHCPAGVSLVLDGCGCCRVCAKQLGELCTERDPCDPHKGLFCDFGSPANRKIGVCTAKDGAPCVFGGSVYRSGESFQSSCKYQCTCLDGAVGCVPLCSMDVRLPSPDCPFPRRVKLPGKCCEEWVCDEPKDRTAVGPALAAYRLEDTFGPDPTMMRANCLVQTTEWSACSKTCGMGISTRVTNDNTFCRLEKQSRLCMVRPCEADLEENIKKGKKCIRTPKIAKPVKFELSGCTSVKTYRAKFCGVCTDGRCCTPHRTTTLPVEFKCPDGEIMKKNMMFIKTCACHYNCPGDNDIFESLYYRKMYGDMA
How it is done: as §1, §2, §3

Assay [2] has as its target T4, recombinant rat CTGF protein (R&D Systems) (rat, UniProt Q9R1E9 25-347).
T4 construct: Bought; also called rCTGF
T4 sequence: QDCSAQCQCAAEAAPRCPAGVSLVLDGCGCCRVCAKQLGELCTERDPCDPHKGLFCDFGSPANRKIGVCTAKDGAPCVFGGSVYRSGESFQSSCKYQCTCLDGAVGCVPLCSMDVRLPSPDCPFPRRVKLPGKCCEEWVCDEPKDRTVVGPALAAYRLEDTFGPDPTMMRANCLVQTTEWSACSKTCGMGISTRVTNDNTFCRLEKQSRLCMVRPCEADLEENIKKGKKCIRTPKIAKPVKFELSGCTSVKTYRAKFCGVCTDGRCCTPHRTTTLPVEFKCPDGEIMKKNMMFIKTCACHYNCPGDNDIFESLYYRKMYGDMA
How it is done:
as §1, §2, §3

T1 sequence (chain, as listed by the source limits assumed): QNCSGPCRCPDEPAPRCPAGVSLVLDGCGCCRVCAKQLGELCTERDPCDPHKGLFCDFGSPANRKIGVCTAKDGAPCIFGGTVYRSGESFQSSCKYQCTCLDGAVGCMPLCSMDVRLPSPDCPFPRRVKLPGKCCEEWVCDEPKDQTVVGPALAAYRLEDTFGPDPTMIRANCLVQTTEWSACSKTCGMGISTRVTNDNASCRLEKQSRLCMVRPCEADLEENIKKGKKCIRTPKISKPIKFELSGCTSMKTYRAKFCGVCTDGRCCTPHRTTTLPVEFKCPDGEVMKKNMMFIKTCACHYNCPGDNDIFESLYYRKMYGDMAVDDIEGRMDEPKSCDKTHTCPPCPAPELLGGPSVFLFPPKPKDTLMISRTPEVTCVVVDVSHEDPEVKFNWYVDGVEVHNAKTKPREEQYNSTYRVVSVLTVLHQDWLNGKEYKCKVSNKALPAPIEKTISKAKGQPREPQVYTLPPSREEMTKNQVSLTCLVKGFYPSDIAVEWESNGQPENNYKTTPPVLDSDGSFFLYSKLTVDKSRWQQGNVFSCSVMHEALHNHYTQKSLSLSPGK

B1: lipocalin mutein of SEQ ID NO: 31 (designed binder)
chain: QDSTSDLIPAPPLSKVPLQQNFQDNQFQGKWYVVGWAGNVKLREDKQPQKMSATIYELKEDKSYDVTEVVFEQKKCHYIIKTFVPGSQPGEFTAGDIKSPPGYTSSLVRVVSTNYNQHAMVFFKKVSQNREFFWITLYGRTKELTSELKENFIRFSKSLGLPENHIVFPVPIDQCIDG
notes: also called hNGAL mutein; not shown: C-terminal His-tag
For B1, the Kd in assay [1] stood at 0.249 nM; with cynomolgus CTGF, 0.452 nM; in the assay with mouse CTGF (Abbexa), 1.58 nM; in assay [2], 1.89 nM. Moreover, the koff came to 4.85e-05 s⁻¹ in assay [1], 7.31e-05 s⁻¹ with cynomolgus CTGF, 0.000444 s⁻¹ with mouse CTGF (Abbexa) and 0.000423 s⁻¹ in assay [2]. The kon in assay [1] is 195000 M⁻¹ s⁻¹; with cynomolgus CTGF it was 162000 M⁻¹ s⁻¹; with mouse CTGF (Abbexa), 281000 M⁻¹ s⁻¹; in assay [2] it was 223000 M⁻¹ s⁻¹.

B2: lipocalin mutein of SEQ ID NO: 36 (designed binder)
chain: QDSTSDLIPAPPLSKVPLQQNFQDNQFQGKWYVVGWAGNVKLREDKQPAKMSATIYELKEDKSYDVTEVVFEQKKCHYIIKTFVPGSQPGEFTAGDIKSPPGYTSSLVRVVSTNYNQHAMVFFKKVGQNREFFWITLYGRTKELTSELKENFIRFSKSLGLPENHIVFPVPIDQCIDG
notes: also called hNGAL mutein
In the case of B2, in assay [1], the Kd worked out at 0.42 nM, the koff was found to be 6.95e-05 s⁻¹ and the kon worked out at 165000 M⁻¹ s⁻¹. For the same molecule, in the assay with cynomolgus CTGF, binding was put at a Kd of 0.695 nM, the koff came out at 9.77e-05 s⁻¹ and the kon came out at 141000 M⁻¹ s⁻¹. In the assay with mouse CTGF (Abbexa), this molecule displayed a Kd of 1.68 nM, a koff of 0.00052 s⁻¹ and a kon of 310000 M⁻¹ s⁻¹.

B3: lipocalin mutein of SEQ ID NO: 33 (designed binder)
chain: QDSTSDLIPAPPLSKVPLQQNFQDNQFQGKWYVVGWAGNAKLREDKQPFKMSATIYELKEDKSYDVTEVVFEQKKCHYIIKTFVPGSQPGEFTEGNYKRRPRLWSDLVRVVSTNYNQHAMVFFKKVHQNREFFWITLYGRTKELTSELKENFIRFSKSLGLPENHIVFPVPIDQCIDG
notes: as for B1
As for B3, in assay [1], the Kd turned out to be 0.099 nM, the koff was determined as 1.71e-05 s⁻¹ and the kon turned out to be 172000 M⁻¹ s⁻¹. In the assay with mouse CTGF (Abbexa), this molecule showed a Kd of 0.301 nM, a koff of 5.29e-05 s⁻¹ and a kon of 176000 M⁻¹ s⁻¹. Further, in assay [2], the Kd was determined as 0.226 nM, the koff was 6.3e-05 s⁻¹ and the kon was 279000 M⁻¹ s⁻¹.

B4: lipocalin mutein of SEQ ID NO: 35 (designed binder)
chain: QDSTSDLIPAPPLSKVPLQQNFQDNQFQGKWYVVGWAGNVKLREDKQPLKMSATIYELKEDKSYDVTEVVFEQKKCHYIIKTFVPGSQPGEFTAGDIKSPPGYTSSLVRVVSTNYNQHAMVFFKKVSQNREFFWITLYGRTKELTSELKENFIRFSKSLGLPENHIVFPVPIDQCIDG
notes: as for B1
With B4, the Kd was determined as 0.55 nM in assay [1], 2.24 nM in the assay with mouse CTGF (Abbexa) and 1.42 nM in assay [2]. Moreover, the results for the koff (in assay [1]; with mouse CTGF (Abbexa); in assay [2]) were 5.94e-05 s⁻¹, 0.000287 s⁻¹ and 0.000273 s⁻¹, respectively. Besides, the kon in assay [1] was found to be 108000 M⁻¹ s⁻¹; with mouse CTGF (Abbexa) it was 128000 M⁻¹ s⁻¹; in assay [2] it was 193000 M⁻¹ s⁻¹.

B5: lipocalin mutein of SEQ ID NO: 34 (designed binder)
chain: QDSTSDLIPAPPLSKVPLQQNFQDNQFQGKWYVVGWAGNVILREDKQPFKMSATIYELKEDKSYDVTEVVFEQKKCHYIIKTFVPGSQPGEFTLGDIKSPPGETSTLVRVVSTNYNQHAMVFFKKVSQNREFFWITLYGRTKELTSELKENFIRFSKSLGLPENHIVFPVPIDQCIDG
notes: also called hNGAL mutein
Consider B5, for which, in assay [1], the Kd worked out at 1.13 nM, the koff came out at 0.000169 s⁻¹ and the on-rate constant (kon) is 150000 M⁻¹ s⁻¹. Also, in the assay with cynomolgus CTGF, binding was put at a Kd of 1.72 nM, the koff amounted to 0.000238 s⁻¹ and the kon stood at 139000 M⁻¹ s⁻¹. In the assay with mouse CTGF (Abbexa), the affinity, expressed as Kd, was 11.9 nM; the off-rate (koff) was determined as 0.00286 s⁻¹; the kon is 240000 M⁻¹ s⁻¹.

B6: lipocalin mutein of SEQ ID NO: 24 (designed binder)
chain: QDSTSDLIPAPPLSKVPLQQNFQDNQFQGKWYVVGVAGNAILRTDKQPAKMFATIYELKEDKSYDVTSVRFEAKSCKYTIKTFVPGSQPGEFTAGNIKSAPGQTSTLVRVVSTNYNQHAMVFFKHVSQNREIFVITLYGRTKELTSELKENFIRFSKSLGLPENHIVFPVPIDQCIDG
notes: also called hNGAL mutein
In the case of B6, the Kd in assay [1] was 0.09 nM; with cynomolgus CTGF, 0.135 nM; with mouse CTGF (Abbexa), 0.034 nM; in assay [2], 0.255 nM. Besides, the koff is 1.41e-05 s⁻¹ in assay [1], 2.63e-05 s⁻¹ with cynomolgus CTGF, 1.16e-05 s⁻¹ with mouse CTGF (Abbexa) and 3.51e-05 s⁻¹ in assay [2]. Moreover, the kon turned out to be 157000 M⁻¹ s⁻¹ in assay [1], 195000 M⁻¹ s⁻¹ in the assay with cynomolgus CTGF, 299000 M⁻¹ s⁻¹ with mouse CTGF (Abbexa) and 138000 M⁻¹ s⁻¹ in assay [2].

B7: lipocalin mutein of SEQ ID NO: 5 (designed binder)
chain: QDSTSDLIPAPPLSKVPLQQNFQDNQFQGKWYVVGKAGNALREDKEPPKMWATIYELKEDKSYDVTHVHFLTKKCKYLIDTFVPGSQPGEFTIGAIKSGPGLTSPLVRVVSTNYNQHAMVFFKWVSQNREWFTITLYGRTKELTSELKENFIRFSKSLGLPENHIVFPVPIDQCIDG
notes: as for B1
With B7, in assay [1], the Kd was determined as 0.315 nM, the koff amounted to 6.65e-05 s⁻¹ and the kon came to 211000 M⁻¹ s⁻¹. For the same molecule, in assay [2], the Kd turned out to be 1.23 nM, the koff came out at 0.000362 s⁻¹ and the kon amounted to 294000 M⁻¹ s⁻¹.

B8: lipocalin mutein of SEQ ID NO: 10 (designed binder)
chain: QDSTSDLIPAPPLSKVPLQQNFQDNQFQGKWYVVGLAGNAILREDKQPAKMFATIYELKEDKSYDVTSVRFEAKSCSYTIKTFVPGSQPGEFTAGNIKSAPGQTSTLVRVVSTNYNQHAMVFWKSVAGTRESFNIALYGRTKELTSELKENFIRFSKSLGLPENHIVFPVPIDQCIDG
notes: as for B1
In the case of B8, in assay [1], the Kd amounted to 0.033 nM, the koff stood at 2.23e-06 s⁻¹ and the kon was determined as 67700 M⁻¹ s⁻¹. Also, in assay [2], the Kd came out at 0.46 nM, the koff came out at 4.08e-05 s⁻¹ and the kon stood at 88800 M⁻¹ s⁻¹.

B9: lipocalin mutein of SEQ ID NO: 22 (designed binder)
chain: QDSTSDLIPAPPLSKVPLQQNFQDNQFQGKWYVVGIAGNAILRVDKQPAKMFATIYELKEDKSYDVTSVRFEAKSCVYTIKTFVPGSQPGEFTAGNIKSAPGQTSTLVRVVSTNYNQHAMVFFKHVSQNREIFVITLYGRTKELTSELKENFIRFSKSLGLPENHIVFPVPIDQCIDG
notes: as for B1
In the case of B9, in assay [1], the Kd came to 0.057 nM, the koff was found to be 8.05e-06 s⁻¹ and the kon worked out at 142000 M⁻¹ s⁻¹. For the same molecule, in assay [2], the Kd was found to be 0.221 nM, the koff is 4.01e-05 s⁻¹ and the kon came to 181000 M⁻¹ s⁻¹.
